Experimental data as given in paper PMC7387800.

Legend:
[1] = target: VqmA-FLAG (Vibrio cholerae)
[2] = target: VqmA-FLAG (Vibrio cholerae); assay: non-reducing SDS-PAGE with anti-FLAG immunoblot (disulfide-linked dimer); cells treated 1 h with 25 μM DPO, in the presence or absence of O2; lysate boiled in SDS-PAGE buffer without BME
[3] = tested on: 6xHis-VqmA WT (Vibrio cholerae C6706?); assay: EMSA
[4] = tested on: 6xHis-VqmA C134A (Vibrio cholerae C6706?); assay: EMSA

How did the vqmR-lacZ reporter activity in ΔvqmA Δtdh V. cholerae carrying pvqmA-FLAG, with 25 μM DPO, with against without DTT [1] turn out when VqmA-FLAG (natural protein) was run?
The vqmR-lacZ reporter activity in ΔvqmA Δtdh V. cholerae carrying pvqmA-FLAG, with 25 μM DPO, with against without DTT was 6 fold.

What about the percent of Holo-VqmA with the intermolecular C134-C134 disulfide bond [2] of the same substance?
Its percent of Holo-VqmA with the intermolecular C134-C134 disulfide bond is 40 to 50%.

What about the stoichiometry N [2] of the same substance?
The stoichiometry N was 2.

For vqmR promoter DNA (PvqmR), which binding signal (fold more potent than diamide-treated P2) [3] is on record?
The binding signal (fold more potent than diamide-treated P2) was 2.

What about the binding signal (fold reduction vs DTT-treated P2) [4] of the same substance?
Its binding signal (fold reduction vs DTT-treated P2) is 4.
